Results reported in the supplement of paper PMC9170038.

Assays:
[1] = system: MS2 coat protein; assay: apparent KD of MS2 coat protein, switch ON state; designed switch direction (-1 OFF switch, 1 ON switch): 1; higher = weaker reporter binding; settings: FMN input: 0 or 200 uM; Eterna round: R93 (includes R88 designs)
How it was run: (§1)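 Binding of SNAP-549-labelled MS2 coat protein was measured on designed RNA switches transcribed on-chip from Illumina sequencing clusters. The protein rose in twofold steps from 0.7 or 1.5 nM to 3 µM, with 0.8–1.5 h per step early on and 10–20 min per step later, in 100 mM Tris-HCl pH 7.5, 80 mM KCl, 4 mM MgCl2, without or with constant ligand. Each design's apparent KD is the median of fits to its normalised cluster binding curves.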

[2] = system: MS2 coat protein; assay: apparent KD of MS2 coat protein, switch OFF state (with FMN for OFF switches, without FMN for ON switches); designed switch direction (-1 OFF switch, 1 ON switch): 1; higher = weaker reporter binding; settings: FMN input: 0 or 200 uM; Eterna round: R93 (includes R88 designs)
How it was run: as §1

| Sequence | apparent KD of MS2 coat protein [1] | apparent KD of MS2 coat protein [2] |
| --- | --- | --- |
| GAGAGACAUGAGGAUCACCCAUGUAGGAUUAUGGGAGGAUAUACAAAGACGAGAGUCAGAGUAGAAGGCCUAGGAU [salish99-ss1-138(!)] | 21.2 nM | 54.9 nM |
| AAGAAACAUGAGGAUCACCCAUGUGAAAUAAACACAGGAUAUGCGAAAAGAAACAAAGAAGCAGAAGGGUGAAGAA [Mat - Same State 1 - Tesla mod - 57] | 15.1 nM | 44.1 nM |
| GAAAAACAUGAGGAUCACCCAUGUGGAAAUAUGGGAGGAUAUACUAAGACGAAAGUCGAUGUAGAAGGCCUAAAAG [Same State 1.4e (Mat - Mod of Eli - )] | 22 nM | 82.9 nM |
| GAAAAACAUGAGGAUCACCCAUGUCGAGAGAGACGAGGAUAUCUGAAUCGAUUAGAUUACGGAGAAGGCGUGAAAG [Mat - Same State 1 - Hyphema mod - D96] | 20.3 nM | 25.8 nM |
| GGAAAUAACAGAGAGGAUAUCCAAAGGAAAACAUGAGGAUCACCCAUGUAAAAGGAAGGAAAUUGGGAGAAGGCUCAAAAUAAAU [salish99-ss2-015] | 20.4 nM | 29.1 nM |
| AAGCAACAUGAGGAUCACCCAUGUAGCAGGGUCAGAGGAUAUUUGAUCUUGGUAAGGGUUAAAGAAGGUUGAUAAA [Ceralete] | 159 nM | 91.1 nM |
| AAAACCUGCGUCGAGGAUAUGUAGCCCACUACAUGAGGAUCACCCAUGUGGAUCUUACUGGGUCGACAGAAGGUGAAAGUUAGGC [Onlele] | 36.3 nM | 34.7 nM |
| AUAUGAGCUAUGGAGGAUAUCCACAAUAAAACAUGAGGAUCACCCAUGUAAGAAAGAAAAGAAUGGGAGAAGGCCAUAGCUCAAU [SS 2 M45] | 7.54 nM | 17.5 nM |
| GAAAAACAUGAGGAUCACCCAUGUAGAGAUAUGGGAGGAUAUACAAAGACGAAAGUCGAGGUAGAAGGCCUAAAAG [Garnet 55] | 24.4 nM | 116 nM |
| GAAAAACAUGAGGAUCACCCAUGUAGAAAUAUGGGAGGAUAUACAAACUCGAAAGACAAAGUAGAAGGCCUAAAAG [Garnet 24] | 38.2 nM | 133 nM |
| AUGAAUAGCAUCGAGGAUAUCCAGUCAUGCACAUGAGGAUCACCCAUGUAAGAGAGAGUAUAAUGGGAGAAGGCGAGUACUCGAU [JR_SS002_Sub1704] | 82 nM | 69.4 nM |
| UACACGCGGGCGCAGGAUAUGUCGCUGGUGACAUGAGGAUCACCCAUGUAUACCAUUGCGGUUGAGCAGAAGGGUGAGACGCGUG [Matimare] | 15.1 nM | 57.5 nM |
| AAAUAAAGGAUUAAGGAUAUAUCACAUGAAACAUGAGGAUCACCCAUGUAAUAAUAUAAAGGGUGAUAGAAGGUAGUUUAUAAAUA [High Roller2] | 295 nM | 242 nM |
| AAAAAACAUGAGGAUCACCCAUGUGAAAAUAUGGGAGGAUAUCAUGGAAAAAAAAAAACAUGAGAAGGCCCAGAAA [SS! 1 MT 11] | 13.7 nM | 67.1 nM |
| CUGGACAUAGUAUAGGAUAUAUGAAUAGUUACAUGAGGAUCACCCAUGUGCAUUUAUAUGCGAACAUAGAAGGGUGGUAGUUAAG [Mat - Same state - Malcolm Mod - D141] | 88.4 nM | 48.4 nM |
| AAAAGACAUGAGGAUCACCCAUGUAAAAACAUAGGAGGAUAUGUCAUGAAAAAAGACUUGACAGAAGGCCUUUGUC [SS1 - 49] | 42 nM | 69.8 nM |
| AACAAUCUAUCUGAGGAUAUCAUAAAAAAGACAUGAGGAUCACCCAUGUAGCAGGAAACUGCAUAUGAGAAGGCAGAUAGAUUGA [SS2: 1122] | 29.6 nM | 18.1 nM |
| AUGGUCAAGUGUGAGGAUAUCCAGGCUCCCACAUGAGGAUCACCCAUGUUUAUUAGAGCGUAAAGGGAGAAGGUACGAACGCCAU [Esbibiti] | 15.6 nM | 26.9 nM |
| AAGAAAGAAACAUAGGAUAUCAAGAAUAUAACAUGAGGAUCACCCAUGUAAAUACGAAAGUAUAAUGAGAAGGAUGGAUGAUCUUC [Mat - Mod of Meechl] | 24.3 nM | 34.5 nM |
| AGAAAACAUGAGGAUCACCCAUGUAGAAAUAUGGGAGGAUAUACAAAGACGAAAGUCAAAGUAGAAGGCCUAAAGA [Mat - Same State 1 - Eli mod - 33] | 19 nM | 71.9 nM |
| AAAAGACAUGAGGAUCACCCAUGUCAAGACAUAGGAGGAUAUGUCUUGAAAAAAGACUUGACAGAAGGCCUUUGUC [SS1 - 58] | 16.5 nM | 21.1 nM |
| AAGAAACAUGAGGAUCACCCAUGUACCCAAAAGGGAGGAUAUGGAAAAGAAAGAAAGAAACCAGAAGGCCCAUGAA [Artabanus the Hyrcanian] | 10.8 nM | 22.2 nM |

| Sequence | apparent KD of MS2 coat protein [1] | apparent KD of MS2 coat protein [2] |
| --- | --- | --- |
| AAAACACAUGAGGAUCACCCAUGUGCAAAAUUCGCAGGAUAUUUCUCAAUUAAAUGAAAGGAAGAAGGGUGAUAAA [Nob's Hobby 34 - Jieux - Same State 1] | 19.4 nM | 29.4 nM |
| AGAAAACAUGAGGAUCACCCAUGUAGAAAUAUGGGAGGAUAUACGAGGACGAAAGUCAAAGUAGAAGGCCUAAAGA [Mat - Same State 1 - Meechl mod - D125] | 21 nM | 71.2 nM |
| AAAAAACAUGAGGAUCACCCAUGUGCAAAAUUCGCAGGAUAUUCCUCAAUUAAAUGAAAGGAAGAAGGGUGACAAA [Nob's Hobby 30 - Jieux - Same State 1] | 92.6 nM | 253 nM |
| AAAAGACAUGAGGAUCACCCAUGUCCUCGGACAUGAGGAUAUGUACAGACUUCGGUCUGUACAGAAGGCAUGUAAA [SS1 - 1070] | 47.3 nM | 232 nM |
| AGAAAUAAAAGAGAGGAUAUCCAAAAGAAAACAUGAGGAUCACCCAUGUGAAAGAAAAGAAAAUGGGAGAAGGCUCAAAAUAAGA [Topaz 18] | 22.5 nM | 55.4 nM |
| AGGAGACAUGAGGAUCACCCAUGUGAGAAGAGGCGAGGAUAUCGAAAGAAAGAAGAGAAACGAGAAGGCGCGAGAU [salish99-SS1-021] | 25.1 nM | 38.7 nM |
| AAAAGACAUGAGGAUCACCCAUGUUAAGACGUGGGAGGAUAUGCAUGGAAAACAUGCUGUGCAGAAGGCCCGUGUC [SS1 - 23] | 19.8 nM | 78.6 nM |
| AAAAAACAUGAGGAUCACCCAUGUAAUACAACGUCAGGAUAUUGAUUUUAUUAUGUAUUGCAAGAAGGGACAAAAA [Same State 1.3 (Same State 1 - Omei 2 - one GC added)] | 161 nM | 144 nM |
| UAAAUACAUGAGGAUCACCCAUGUCAAGAGUAUUAAGGAUAUGAACCAGGGAACUGGCAGUCAGAAGGUGAGACUC [Ququeddi] | 235 nM | 65.2 nM |
| AAGAAACAUGAGGAUCACCCAUGUAAACUCGAGAGAGGAUAUGGUACAUGGAAGAUCCAACUAGAAGGCUCUGGAG | 38.6 nM | 17.6 nM |
| AUAAAACAUGAGGAUCACCCAUGUAAUAAGAACCGAGGAUAUGGAAAUAAUAAUAAUAAACCAGAAGGUGGUGAUC [Meechl MS2 SS1] | 110 nM | 105 nM |
| AAAUAAAUGACUAAGGAUAUAUCGAAGAAGACAUGAGGAUCACCCAUGUGAUAAUAAAAAGGGUGGUAGAAGGUAGUCAACAAAC [Mod 5 of Pariah 4 by Hyphema in Round 1] | 65.4 nM | 116 nM |
| AGGAAACAUGAGGAUCACCCAUGUGUAAAAAAUACAGGAUAUGGAAACACGAAAGUGAAACCAGAAGGGUAAAAAA [77%, Mat - Mod of Eli, 31] | 13.4 nM | 19 nM |
| AUGGUGCAGGUACAGGAUAUGUUGCUCGUAACAUGAGGAUCACCCAUGUACCUAUGAGAUUAAAUGCAGAAGGGUGCACACCACG [Quorra] | 43.5 nM | 1480 nM |
| AAAAUAAAAUAAAAGGAUAUAAAAAUAUAUACAUGAGGAUCACCCAUGUAUAUAAAAAUAAAAUAAAAGAAGGAAUAAAAAUAAA [SS2 507: MS2 7] | 22.7 nM | 18.9 nM |
| AAAAAACAUGAGGAUCACCCAUGUGAGAACAUGGGAGGAUAUACGAGGACGAGAGUCAGAGUAGAAGGCCUAAAAA [Garnet 66] | 161 nM | 51.7 nM |
| UAACUACAUGAGGAUCACCCAUGUCUCCAGGGUCAAGGAUAUGGGCGUAGACAAACUACACCAGAAGGUGAUCCAA [Rireenon] | 156 nM | 307 nM |
| AAAAUACAUGAGGAUCACCCAUGUCCGACAAAUCAAGGAUAUGAUAGCCUAACCAGGCUGUUAGAAGGUGAAAGAA [Laarera] | 637 nM | 51.1 nM |
| AAAAAACAUGAGGAUCACCCAUGUGACAACAUGGGAGGAUAUACGAAGACGAGAGUCGAAGUAGAAGGCCUAAAAG [Garnet 78] | 117 nM | 65.3 nM |
| AAAAAACAUGAGGAUCACCCAUGUAAAAAAAACACAGGAUAUCCCUUUUUAAAAAAAAAAGGAGAAGGGUGAAAAA [Nob's Hobby 6 - Jieux - Same State 1] | 29.8 nM | 28 nM |
| AGACAUAACAGAGAGGAUAUCCAAUAGAAAACAUGAGGAUCACCCAUGUGAAAGAAAAUAAAAUGGGAGAAGGCUCACAUACAGA [Topaz 39] | 5.57 nM | 23 nM |
